The values that follow come from patent US20220054583A1 (ANBITION S R L, published 2022).

The target of assay [1] is human recombinant receptor VEGFR-1, seven extracellular domains fused to the Fc domain of human IgG (R&D Systems, cat No 321-FL) (human) (UniProt P17948). The assay can be described thus: competition ELISA, residual binding of PlGF (5 ng/ml) to coated VEGFR-1-Fc, peptide 780 nM. A general note: In an ELISA, binding on a coated surface is turned into a signal by an enzyme label.

Assay [2] has the same target. As to the kind of experiment: competition ELISA, residual binding of PlGF (5 ng/ml) to coated VEGFR-1-Fc, peptide 1560 nM.
For assay [3] the target is unchanged. The assay can be described thus: competition ELISA, residual binding of PlGF (5 ng/ml) to coated VEGFR-1-Fc, peptide 3125 nM.
Assay [4] has the same target. The assay can be described thus: competition ELISA, residual binding of PlGF (5 ng/ml) to coated VEGFR-1-Fc, peptide 6250 nM.
For assay [5] the target is unchanged. The assay can be described thus: competition ELISA, residual binding of PlGF (5 ng/ml) to coated VEGFR-1-Fc, peptide 12500 nM.
The target is the same in assay [6]. As to the kind of experiment: competition ELISA, residual binding of PlGF (5 ng/ml) to coated VEGFR-1-Fc, peptide 25000 nM.
The target is the same in assay [7]. As to the kind of experiment: competition ELISA, residual binding of PlGF (5 ng/ml) to coated VEGFR-1-Fc, peptide 50000 nM.
Assay [8] shares this target. The assay can be described thus: competition ELISA, residual binding of VEGF-A (5 ng/ml) to coated VEGFR-1-Fc, peptide 780 nM.
The target is the same in assay [9]. The assay can be described thus: competition ELISA, residual binding of VEGF-A (5 ng/ml) to coated VEGFR-1-Fc, peptide 1560 nM.
Assay [10] has the same target. As to the kind of experiment: competition ELISA, residual binding of VEGF-A (5 ng/ml) to coated VEGFR-1-Fc, peptide 3125 nM.
For assay [11] the target is unchanged. As to the kind of experiment: competition ELISA, residual binding of VEGF-A (5 ng/ml) to coated VEGFR-1-Fc, peptide 6250 nM.
Assay [12] shares this target. As to the kind of experiment: competition ELISA, residual binding of VEGF-A (5 ng/ml) to coated VEGFR-1-Fc, peptide 12500 nM.
The target is the same in assay [13]. The assay can be described thus: competition ELISA, residual binding of VEGF-A (5 ng/ml) to coated VEGFR-1-Fc, peptide 25000 nM.
For assay [14] the target is unchanged. The assay can be described thus: competition ELISA, residual binding of VEGF-A (5 ng/ml) to coated VEGFR-1-Fc, peptide 50000 nM.

human recombinant receptor VEGFR-1, seven extracellular domains fused to the Fc domain of human IgG (R&D Systems, cat No 321-FL) (human), sequence (P17948 27-758): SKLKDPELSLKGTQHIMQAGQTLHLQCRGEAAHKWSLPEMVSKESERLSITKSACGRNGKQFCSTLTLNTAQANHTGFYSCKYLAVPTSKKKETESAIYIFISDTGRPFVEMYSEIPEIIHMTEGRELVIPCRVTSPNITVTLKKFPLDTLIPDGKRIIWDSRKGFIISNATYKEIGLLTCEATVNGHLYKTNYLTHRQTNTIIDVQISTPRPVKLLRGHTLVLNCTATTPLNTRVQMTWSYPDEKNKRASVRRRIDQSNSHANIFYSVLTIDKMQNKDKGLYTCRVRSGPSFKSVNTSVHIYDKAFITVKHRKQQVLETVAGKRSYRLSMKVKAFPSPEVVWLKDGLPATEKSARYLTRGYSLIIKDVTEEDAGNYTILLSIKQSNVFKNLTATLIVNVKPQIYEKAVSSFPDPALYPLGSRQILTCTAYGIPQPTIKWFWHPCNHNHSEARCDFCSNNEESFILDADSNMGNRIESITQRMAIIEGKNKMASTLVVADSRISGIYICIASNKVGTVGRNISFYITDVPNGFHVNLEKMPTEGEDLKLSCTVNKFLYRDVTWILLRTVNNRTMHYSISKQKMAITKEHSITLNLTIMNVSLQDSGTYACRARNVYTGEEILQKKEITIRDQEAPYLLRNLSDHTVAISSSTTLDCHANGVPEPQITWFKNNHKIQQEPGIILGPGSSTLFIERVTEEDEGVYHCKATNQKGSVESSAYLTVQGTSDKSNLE

For the substance “control peptide (PC), (S-Ser)-(S-Ala)-(S-Cha) tripeptide with a tetrameric structure identical to the structure of the iVR1 peptides”, the binding % in assay [1] was 98.9%; in [2], 102%; in [3], 99.5%; in assay [4], 93.8%; in assay [5], 87.2%; in assay [6], 88.5%. Besides, the binding % was found to be 90.2% in assay [7]; 100% in assay [8]; 103% in [9]; 95.2% in [10]; 91.4% in assay [11]; 100% in [12]. The values for the binding % in assay [13] and in [14] were 93.4% and 87.9%, respectively.
